The source of these data is patent US8691772B2, “HSP60, HSP60 peptides and T cell vaccines for immunomodulation” (Yeda Research and Development Co. Ltd., priority 2005, dated 2014).

One test concerns human T cells. The test can be described thus: In vivo homing assay of human T cells to bone marrow. Further details: species or system NOD/SCID mice. As to conditions: T cells pretreated (HSP60 1 μg/ml for 1 hr or mAb); 16 hr after injection. The method, then:
In vivo homing assay. Purified human T cells were incubated (1 hr, tissue culture conditions) with HSP60 (1 μg/ml) in tissue culture conditions. The cells were then washed with PBS, and, where indicated, further incubated (30 min, 4° C.) with mouse anti-human CXCR4 mAb (10 μg/3×10^6 cells), anti-human TLR2 or anti-TLR4 mAb (each at 20 μg/ml). The cells were then washed and injected (5×10^6 cells/0.5 ml per mouse) i.v. into the tails of irradiated (375 cGY from a ^60[Co] source), 8-week-old NOD/SCID mice, and the entrance of human T cells into the bone marrow of recipient mice was evaluated as previously described (Kollet et al., 2001). Each tested sample contained 1.5×10^6 cells.

Test [1] relates to human CD3^+, CD4^+, and CD8^+ T cells. Kind of test: Cytokine secretion of anti-CD3-activated CD3+, CD4+, CD8+ and CD25-separated T cells. The format is cell-based. The following applies: for secretion of IL-10 and TGF-β: anti-CD3. The source says: Purified T-cell populations. […] In a second round of purification, CD4^+ T cells were separated to CD25^− and CD25^+ populations with magnetically coupled mAb against human CD25 (Miltenyi Biotec; Bergisch Gladbach, Germany).

A further test concerns CD8^+ T cells. Kind of test: Co-culture of treated CD4+CD25+ T cells with CD8+ T cells. The format is cell-based, human. The following applies: 1% or more HSP60-treated CD4+CD25+ T cells; anti-CD3 24 hr.
The next test concerns NF-κB. The test can be described thus: Nuclear translocation of NF-κB in T cells. The format is cell-based, human. The method, then:
(§1) Western blot analysis of T-cell nuclear extracts. Purified T cells (5×10^6) were preincubated with different concentrations of HSP60 for the indicated periods of time (37° C. in a 7% CO2, humidified atmosphere). […] T cells were lysed in 10 mM HEPES, 1.5 mM MgCl2, 1 mM dithiothreitol (DTT), 1 mM PMSF, 0.5% Nonidet P-40. The lysates were incubated on ice for 10 min and centrifuged at 2000 rpm for 10 min at 4° C. The supernatants (cytoplasmic extracts) were transferred and the pellet (nuclei) was suspended in buffer containing 30 mM HEPES, 450 mM NaCl, 25% Glycerol, 0.5 mM EDTA, 6 mM DTT, 12 mM MgCl2 1 mM PMSF, 10 μg/ml leupeptin, 10 μg/ml pepstatin, 1% phosphatase inhibitor cocktail, and the suspension was incubated on ice for 30 min. The lysates were cleared by centrifugation (30 min, 14×10^3 rpm, 4° C.), and the resulting supernatants analyzed for protein content. For NFATp analysis nuclear extracts were prepared with a NE-PER Nuclear and Cytoplasmic Extraction reagent (Pierce, Rockford, Ill.) according to the manufacturer's protocol. Sample buffer was then added and, after boiling, the samples, containing equal amounts of proteins, were separated on 10% SDS-PAGE gel and transferred to nitrocellulose membranes. The membranes were blocked with TBST buffer containing low-fat milk (5%), Tris pH 7.5 (20 mM), NaCl (135 mM) and Tween 20 (0.1%), and probed with the following mAb in the same buffer: anti-NF-κb (diluted 1:1000), anti-total (t) ERK (diluted 1:20,000), anti-NFATp (diluted 1:500), anti T-bet (diluted 1:1000), anti-GATA-3 (diluted 1:1000), anti-Lamin B (diluted 1:1000). Immunoreactive protein bands were visualized using labeled secondary antibodies and the enhanced ECL system.

In the next test the test system is NFATp. The test can be described thus: NFATp activation in T cells. It is filed as cell-based, human. How it is done:
as §1

Where [2] appears, read: CD3+ and CD4+ T cells pre-treated 2 hours, washed, anti-CD3 24 hr.

B1: HSP60: recombinant human heat shock protein 60 (StressGen Biotechnologies) (protein)
chain: AKDVKFGADARALMLQGVDLLADAVAVTMGPKGRTVIIEQSWGSPKVTKDGVTVAKSIDLKDKYKNIGAKLVQDVANNTNEEAGDGTTTATVLARSIAKEGFEKISKGANPVEIRRGVMLAVDAVIAELKKQSKPVTTPEEIAQVATISANGDKEIGNIISDAMKKVGRKGVITVKDGKTLNDELEIIEGMKFDRGYISPYFINTSKGQKCEFQDAYVLLSEKKISSIQSIVPALEIANAHRKPLVIIAEDVDGEALSTLVLNRLKVGLQVVAVKAPGFGDNRKNQLKDMAIATGGAVFGEEGLTLNLEDVQPHDLGKVGEVIVTKDDAMLLKGKGDKAQIEKRIQEIIEQLDVTTSEYEKEKLNERLAKLSDGVAVLKVGGTSDVEVNEKKDRVTDALNATRAAVEEGIVLGGGCALLRCIPALDSLTPANEDQKIGIEIIKRTLKIPAMTIAKNAGVEGSLIVEKIMQSSSEVGYDAMAGDFVNMVEKGIIDPTKVVRTALLDAAGVASLLTTAEVVVTEIPKEEKDPGMGAMGGMGGGMGGGMF
Consider B1, for which the “homing of human T cells to the bone marrow” value with human T cells is “significantly (P<0.05) decreased their homing to the bone marrow”. The “effect on cytokine secretion at doses in the order of 10 ng/ml” value in test [1] is given as “did not affect cytokine secretion”. Besides, the “inhibition of IFN-γ and TNF-α secretion in purified CD4+CD25- T cells” value in test [1] (1 ng/ml, 2 hours, anti-CD3 24 hours) was “completely prevented the inhibition of IFN-γ and TNF-α secretion by HSP60 treatment”. In test [1] (setting [2]), the “enhancement of IL-10 secretion” value is listed as 2-3 fold, the “inhibition of anti-CD3-induced IFN-γ secretion” value is on record as “about 50%” and the “inhibition of anti-CD3-induced TNF-α secretion” value is recorded as “about 50%”. Also, in test [1] (CD4+CD25- T cells, 1 ng/ml), the “secretion of IL-10 and TGF-β” value was “but not of CD4^+CD25^− T cells”. Further, the “cytokine secretion without anti-CD3” value in test [1] (HSP60 alone, 0.01-1000 ng/ml) is reported as “did not induce cytokine secretion by the T cells”. Moreover, in test [1] (P<0.05), the “higher concentrations at which cytokine secretion was again affected significantly” value is 0.1-1 μpg/ml and the “low concentrations with significant effects on cytokine secretion” value fell in the range of 0.1 to 1.0 ng/mL. Also, in test [1] (anti-CD3-activated), the “cytokine secretion of CD8+ T cells” value was “unresponsive to HSP60 at all concentrations tested”. Further, in test [1] (un-separated CD4+ or CD4+CD25+ T cells, 1 ng/ml), the “secretion of IL-10 and TGF-β” value was “significantly up-regulated the secretion of IL-10 and TGF-β”. Besides, in the test with CD8^+ T cells, the “inhibition of IFN-γ or TNF-α secretion in co-culture with CD8+ T cells” value is reported as 3-4 fold. Further, in the test on NF-κB (1 ng/ml), the “time at which NF-κB inhibition was apparent” value is 60 min and the “time of peak NF-κB inhibition” value is listed as 120 to 240 min. Moreover, the “nuclear translocation of NF-κB without anti-CD3” value in the test on NF-κB (HSP60 alone) is “did not affect the nuclear translocation of NF-κB”. Moreover, in the test with NF-κB (P<0.01), the “concentrations of maximal effects on NF-κB” value was 1 ng/ml or 1 μg/ml. In the test on NFATp (1 ng/ml), the “time at which NFATp inhibition was apparent” value turned out to be 60 min and the “time of peak NFATp inhibition” value is listed as 120 to 240 min. The “anti-CD3-induced activation and de-phosphorylation of NFATp” value in the test with NFATp (1 ng/ml pre-treatment) is “significant down-regulation of their activation and de-phosphorylation of NFATp”. For the same molecule, in the test on NFATp (HSP60 alone), the “NFATp phosphorylation in the absence of anti-CD3” value is “did not affect NFATp phosphorylation”.
